Consider 2 molecules from publication PMC13615978.

Experiment [1] concerns the target Sla2 IDR-CC-mScarlet (IDR, coiled-coil and REND regions) (S. cerevisiae) (UniProt P33338).
Experiment [2] has the same target. This is another data set of the same source.

Sequence of UniProt P33338 (P33338 261-746): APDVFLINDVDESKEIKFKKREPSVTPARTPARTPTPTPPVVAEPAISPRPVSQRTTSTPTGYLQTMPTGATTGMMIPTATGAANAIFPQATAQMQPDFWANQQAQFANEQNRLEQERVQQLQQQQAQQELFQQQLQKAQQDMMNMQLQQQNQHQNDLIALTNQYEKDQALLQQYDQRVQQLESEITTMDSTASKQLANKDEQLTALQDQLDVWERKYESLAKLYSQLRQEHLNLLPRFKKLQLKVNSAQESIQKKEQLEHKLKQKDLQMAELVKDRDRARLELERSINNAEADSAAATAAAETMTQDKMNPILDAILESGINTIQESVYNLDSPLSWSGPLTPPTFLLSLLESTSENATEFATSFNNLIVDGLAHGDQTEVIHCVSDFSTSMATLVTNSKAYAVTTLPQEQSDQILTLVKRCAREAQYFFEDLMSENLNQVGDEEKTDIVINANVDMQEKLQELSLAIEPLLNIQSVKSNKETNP

In the case of “"Clathrin" construct: full-length CLC and CHC distal leg (residues 1172-1572) heterodimer conjugated to mNeonGreen (from UniProt P17891 1-233; P22137 1172-1572) (complex)”, in experiment [1], the ID/IS of Clathrin (green channel) with Sla2 IDR-CC-mScarlet droplets, 2.5% (w/v) PEG 8000 came out at 3.6 and the ID/IS of Sla2 IDR-CC-mScarlet (magenta channel) in the presence of Clathrin, 2.5% (w/v) PEG 8000 stood at 6.9.

B1: Ede1 IDR-CC (residues 366-900) tagged with mEGFP (domain or fragment)
chain: GLYPPNPLPQQQSAPQIAIPSRASKPSLQDMPHQVSAPAVNTQPTVPQVLPQNSNNGSLNDLLALNPSFSSPSPTKAQTVVQNNTNNSFSYDNNNGQATLQQQQPQQPPPLTHSSSGLKKFTPTSNFGQSIIKEEPEEQEQLRESSDTFSAQPPPVPKHASSPVKRTASTTLPQVPNFSVFSMPAGAATSAATGAAVGAAVGAAALGASAFSRSSNNAFKNQDLFADGEASAQLSNATTEMANLSNQVNSLSKQASITNDKKSRATQELKRVTEMKNSIQIKLNNLRSTHDQNVKQTEQLEAQVLQVNKENETLAQQLAVSEANYHAAESKLNELTTDLQESQTKNAELKEQITNLNSMTASLQSQLNEKQQQVKQERSMVDVNSKQLELNQVTVANLQKEIDGLGEKISVYLTKQKELNDYQKTVEEQHAQLQAKYQDLSNKDTDLTDREKQLEERNRQIEEQENLYHQHVSKLQEMFDDLSQRKASFEKADQELKERNIEYANNVRELSERQMNLAMGQLPEDAKDIIAKSAS
B1: in experiment [2], the ID/IS of 20 µM Sla2 IDR-CC when mixed with 45 µM Ede1 IDR-CC (4.7 for Sla2 IDR-CC alone), 2.5% (w/v) PEG 8000 came to 7.8 and the droplet-to-solution intensity ratio (ID/IS) of 5 µM Ede1 IDR-CC in condensates of 20 µM Sla2 IDR-CC, 2.5% (w/v) PEG 8000 is 4.
